The values below come from publication PMC5287571 (Biochemical pharmacology, 2016).

The target of this experiment is HA-Ubiquitin-Vinyl Sulfone (UniProt P0CG48 1-76, vinyl sulfone (active site probe of cysteine DUBs)). Kind of experiment: active-site-directed labelling with HA-UbVS.

B1: UCHL5 (enzyme)
chain: MTGNAGEWCLMESDPGVFTELIKGFGCRGAQVEEIWSLEPENFEKLKPVHGLIFLFKWQPGEEPAGSVVQDSRLDTIFFAKQVINNACATQAIVSVLLNCTHQDVHLGETLSEFKEFSQSFDAAMKGLALSNSDVIRQVHNSFARQQMFEFDTKTSAKEEDAFHFVSYVPVNGRLYELDGLREGPIDLGACNQDDWISAVRPVIEKRIQKYSEGEIRFNLMAIVSDRKMIYEQKIAELQRQLAEEEPMDTDQGNSMLSAIQSEVAKNQMLIEEEVQKLKRYKIENIRRKHNYLPFIMELLKTLAEHQQLIPLVEKAKEKQNAKKAQETK
Regarding B1, the binding result is “binds”.
